In paper PMC12117401:

Biological target: Nb55 (Lama glama (llama immune VHH library), UniProt PDB:9GXH_1)
Assay: ITC

Binding result, no binding:
GGGCGCGGGAGGAATTGGGCGGG (structured_DNA) [Bcl2]
GGTGGGTGTGGTTGG (structured_DNA) [TBA T4G]
GACCCCGCCCCCGGCCCGCCCCCG (structured_DNA) [VEGF]
GAAAAACCCCCTTTTTC (structured_DNA) [B-DNA hairpin]
TGAGGGTGGGTAGGGTGGGTAA (structured_DNA) [c-Myc]
